Measurements from patent US20180187211A1.

Molecular target: PDL1 on the surface of TC-1 cells (mouse (TC-1 murine tumor cell line)) (UniProt Q9EP73)
Assay: flow cytometry, staining of TC-1 tumor cells (background control)

Sequence of UniProt Q9EP73 (Q9EP73 19-290): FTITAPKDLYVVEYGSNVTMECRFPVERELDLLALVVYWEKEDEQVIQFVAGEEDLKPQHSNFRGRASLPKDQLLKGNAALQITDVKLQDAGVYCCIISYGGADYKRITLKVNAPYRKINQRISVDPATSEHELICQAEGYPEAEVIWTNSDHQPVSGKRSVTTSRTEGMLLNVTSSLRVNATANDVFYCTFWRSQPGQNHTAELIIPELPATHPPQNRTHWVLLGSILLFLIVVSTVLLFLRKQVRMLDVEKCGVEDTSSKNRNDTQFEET

median fluorescent intensity (MFI): 184 MFI
Substance: PE-conjugated isotype control antibody
